System: MS2 coat protein
Test: apparent KD of MS2 coat protein; designed switch direction (-1 OFF switch, 1 ON switch): -1; higher = weaker reporter binding
Method in brief: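 Each step of the titration lasted 0.8–1.5 h at the lowest concentration and 10–20 min at the highest. The protein, SNAP-549-labelled MS2 coat protein, went from 0.7 or 1.5 nM doubling to 3 µM over RNA switches transcribed on Illumina chips by stalled E. coli RNA polymerase. Normalised cluster fluorescence was curve-fitted, and the per-design median over clusters is given as apparent KD.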

[1] = input ligand: microRNA oligo, concentration not stated
[2] = Eterna round: R95, input ligand: microRNA oligo, concentration not stated

For “AUUGUAUGAUACCUCUAAUACAUGAGGAUCACCCAUGUUAUCGAGGAUAUGCAGAAUAGAUUAGAGCAGAAGGCGAAGUAAUAU [JR_ExcNG3_Sub025] (Eterna round: R96, puzzle: Exclusion NG 3)”, the “apparent KD of MS2 coat protein” value (input ligand: FMN 200 uM) was 15 nM, the “apparent KD of MS2 coat protein” value [1] was 9.08 nM and the “apparent KD of MS2 coat protein” value (input ligand: none) was 13.6 nM.
With “AGCUGUGGCCAAGGAUAUCUAACCUUAAAUACCGACGUAUAGUCGGACAUGAGGAUCACCCAUGUGGAGAAGGUGGUCUCAGCA [Eli eng2 - 043] (Eterna round: R96, puzzle: Exclusion NG 2)” the “apparent KD of MS2 coat protein” value [1] was 18.3 nM.
For “GCUCAACAUGAGGAUCACCCAUGUCAGGAUAUGCGAAUUUCAUCAAAAGAUGAAAUUUGCAGAAGGGACUGAGC [Omei Ex1 A31] (Eterna round: R97, puzzle: Exclusion 1)”, the “apparent KD of MS2 coat protein” value (input ligand: FMN 200 uM) was 27.2 nM and the “apparent KD of MS2 coat protein” value (input ligand: none) was 22 nM.
With “UUUGAUGUUGAGGAUAUGCUUUUUUUUAUUAUAGCAGAAGGCGAUACAUGAGGAUCACCCAUGUUCAUGGCUUU [JR_E6_Sub098] (puzzle: Exclusion 6)” the “apparent KD of MS2 coat protein” value [2] was 14.1 nM.
In the case of “AAGGAUAGAGGAUAUACGUAGAUACAGAUUCAUGUAGAACUACAUGAGGAUCACCCAUGUAGAAGGCUAUCCUA [Fiskers Ex 2 - 6] (Eterna round: R96, puzzle: Exclusion 2)”, the “apparent KD of MS2 coat protein” value (input ligand: FMN 200 uM) is reported as 354 nM, the “apparent KD of MS2 coat protein” value [1] is reported as 24.8 nM and the “apparent KD of MS2 coat protein” value (input ligand: none) is reported as 29 nM.
For “AGCUAGUGAGGAUAUACGAACAUGUCAAAAGACUGUAAGGGACAUGAGGAUCACCCAUGUAGAAGGCACUAGCA [Diamond 55] (Eterna round: R96, puzzle: Exclusion 2)”, the “apparent KD of MS2 coat protein” value [1] was 32.4 nM.
For “UAUAUGUCAGGAUAUUAGUAGUAAAUGAAUAAAAUUAUUACUGAGAAGGGACAUGAGGAUCACCCAUGUGCCUU [Mat - Exclusion 4 - Eli Mod - D23] (Eterna round: R97, puzzle: Exclusion 4)”, the “apparent KD of MS2 coat protein” value (input ligand: FMN 200 uM) was 20.6 nM and the “apparent KD of MS2 coat protein” value (input ligand: none) was 16.6 nM.
“GGUUGGCGAGGAUAUACAUGAGGAUCACCCAUGUGGUCCUGUGGCUGGUCUAAACUUUGUAGAAGGCGCGGGUC [salish99_ex3_r4_022] (Eterna round: R97, puzzle: Exclusion 3)” was tested, and the “apparent KD of MS2 coat protein” value (input ligand: FMN 200 uM) was 84.9 nM and the “apparent KD of MS2 coat protein” value (input ligand: none) was 78.1 nM.
With “CAGUACUGAGGAUAUACAUGAGGAUCACCCAUGUGUUCCAGCGAGGAAACUAGCAAAAGUAGAAGGCAGUACUG [salish99_ex3_r3_077] (Eterna round: R96, puzzle: Exclusion 3)” the “apparent KD of MS2 coat protein” value (input ligand: FMN 200 uM) was 242 nM, the “apparent KD of MS2 coat protein” value [1] was 15.6 nM and the “apparent KD of MS2 coat protein” value (input ligand: none) was 18.5 nM.
“GUGGUACAUGAGGAUCACCCAUGUUAGGAUAUCGCGUGAGGUUUUACUUACACACACACGAGAAGGGACGUCUU (puzzle: Exclusion 1)” was tested, and the “apparent KD of MS2 coat protein” value [2] was 43.2 nM.
For “UUAACCAGAGGAUAUGCGAAUAAAUAAAACUUUUUUUUUUAACAUGAGGAUCACCCAUGUAGAAGGCUGCAAUU [Ex2 #31] (Eterna round: R97, puzzle: Exclusion 2)”, the “apparent KD of MS2 coat protein” value (input ligand: FMN 200 uM) was 32 nM and the “apparent KD of MS2 coat protein” value (input ligand: none) was 46.8 nM.
“AAACGUGCGAAGGAUAUCCAUCCACCCUGGAAAGGAGAAGGUCGCACAUGAGGAUCACCCAUGUGUGCCUAAAA [Zalave] (puzzle: Exclusion 6)” was tested, and the “apparent KD of MS2 coat protein” value (Eterna round: R95, input ligand: FMN 200 uM) was 26.6 nM, the “apparent KD of MS2 coat protein” value [2] was 11.4 nM and the “apparent KD of MS2 coat protein” value (Eterna round: R95, input ligand: none) was 11.8 nM.
With “UUUUUCUCAGGAUAUACAUGAGGAUCACCCAUGUAUAUUAAUGAUAAUACAUGGGAAUGUAGAAGGGAGCUCAU [Omei Ex3 Pseudoloop 13] (Eterna round: R97, puzzle: Exclusion 3)” the “apparent KD of MS2 coat protein” value (input ligand: FMN 200 uM) was 111 nM and the “apparent KD of MS2 coat protein” value (input ligand: none) was 135 nM.
In the case of “GGAGCCUUAGGAUAUACAUGAGGAUCACCCAUGUGAUGUCGAAGCAAGGGUCUCCUAGGUAGAAGGAAGACAAU [Eternabot (L1) Solution 90] (Eterna round: R97, puzzle: Exclusion 3)”, the “apparent KD of MS2 coat protein” value (input ligand: FMN 200 uM) is reported as 19.4 nM and the “apparent KD of MS2 coat protein” value (input ligand: none) is reported as 17.9 nM.
In the case of “CGAUGUUAUGUCAGGAUAUGCGUUGCGAAAGCGAUGCAGAAGGGACAUGAGGAUCACCCAUGUCCUAACCAUCG [Omei A 7] (puzzle: Brourd's mod of Exclusion 4)”, the “apparent KD of MS2 coat protein” value [2] is reported as 10.7 nM.
For “AUUUUAUUCUGAGGAUAUUGAUUAAUCCUCUCACAUGAGGAUCACCCAUGUUUCCGUGUUUACCGCAAGAAGGCAGUUUUGUAU [JR_ExcNG2_Sub025] (Eterna round: R96, puzzle: Exclusion NG 2)”, the “apparent KD of MS2 coat protein” value (input ligand: FMN 200 uM) was 41.4 nM, the “apparent KD of MS2 coat protein” value [1] was 35.2 nM and the “apparent KD of MS2 coat protein” value (input ligand: none) was 41 nM.
With “GUGAAGUGAGGAUAUACGAGAGAGGCUGAACCUGGAGAGAAGUAGAAGGCACAUGAGGAUCACCCAUGUUAGGA [JR_Exclu4_Sub021] (puzzle: Exclusion 4)” the “apparent KD of MS2 coat protein” value [2] was 38 nM.
With “AUUAUACAUGUAGGAUAUCUGCACGUGUAGUGCAGAGAAGGACAUGAGGAUCACCCAUGUAGAUCAAUAAUAAUUAAUUUAAUU [ENG1/6-B3] (Eterna round: R96, puzzle: Exclusion NG 1)” the “apparent KD of MS2 coat protein” value (input ligand: FMN 200 uM) was 184 nM, the “apparent KD of MS2 coat protein” value [1] was 96.8 nM and the “apparent KD of MS2 coat protein” value (input ligand: none) was 104 nM.
In the case of “UCAAUUUUGCGAGGAUAUCGACCAUUCCUCUUUACAUGAGGAUCACCCAUGUUCUUUUUCUACAACGAGAAGGCGCUCAUAGUU [JR_ExcNG2_Sub063] (Eterna round: R96, puzzle: Exclusion NG 2)”, the “apparent KD of MS2 coat protein” value [1] is reported as 56.2 nM.
“AACUCACAUGAGGAUCACCCAUGUGAGGAUAUGGAUUCGCUGGCCGUAGCCAGUGGAUCCAGAAGGCGCAUGAU [JL-ex1-4.10] (Eterna round: R97, puzzle: Exclusion 1)” was tested, and the “apparent KD of MS2 coat protein” value (input ligand: FMN 200 uM) was 23.1 nM and the “apparent KD of MS2 coat protein” value (input ligand: none) was 21.2 nM.
In the case of “GACUAUUCGUAGGAUAUACUACUUAGCUAUGGAGUAGAAGGACGAACAUGAGGAUCACCCAUGUGGGACCCGGG [Eternabot (L2) Solution 31] (Eterna round: R97, puzzle: Exclusion 6)”, the “apparent KD of MS2 coat protein” value (input ligand: FMN 200 uM) is reported as 125 nM and the “apparent KD of MS2 coat protein” value (input ligand: none) is reported as 81.2 nM.
For “ACAUGAGGAUCACCCAUGUCCGUCUGGUCUGUCUCGGCUGUCGAGGAUAUAGCUCGGUAUCCGCGCUAGAAGGCGGGAGUCGGA [Aenatbe mod 94] (Eterna round: R96, puzzle: Exclusion NG 3)”, the “apparent KD of MS2 coat protein” value (input ligand: FMN 200 uM) was 24.3 nM, the “apparent KD of MS2 coat protein” value [1] was 24.2 nM and the “apparent KD of MS2 coat protein” value (input ligand: none) was 32.3 nM.
In the case of “CUCUAGAAAGGAUAUACAUGAGGAUCACCCAUGUCCACGCCAUAACCGAGUGCCAUCUGUAGAAGGUUCAGAGU [Eternabot (L1) Solution 96] (Eterna round: R97, puzzle: Exclusion 3)”, the “apparent KD of MS2 coat protein” value (input ligand: FMN 200 uM) is reported as 52.5 nM and the “apparent KD of MS2 coat protein” value (input ligand: none) is reported as 29.2 nM.
With “UAGUAAAAGGUGAGGAUAUCCGCAAUAAAACGUGAGGAGAAGGCACAUGAGGAUCACCCAUGUAGGGUAUCAAA [BmEX4 A.17] (Eterna round: R97, puzzle: Brourd's mod of Exclusion 4)” the “apparent KD of MS2 coat protein” value (input ligand: FMN 200 uM) was 421 nM and the “apparent KD of MS2 coat protein” value (input ligand: none) was 450 nM.
